The source of these data is paper PMC11724289, “Structural insights into a DNA polymerase reading the xeno nucleic acid HNA”.

Series [1] concerns the target T1, Tgo-H4 (RT-H4) DNA polymerase V93Q;I114T;D141A;E143A;S383K;E429G;F445L;A485L;F493V;Y496H;Y497M;Y499F;A500E;K501N;I521L;E664K;K726R;N735K (UniProt P56689).
T1 sequence: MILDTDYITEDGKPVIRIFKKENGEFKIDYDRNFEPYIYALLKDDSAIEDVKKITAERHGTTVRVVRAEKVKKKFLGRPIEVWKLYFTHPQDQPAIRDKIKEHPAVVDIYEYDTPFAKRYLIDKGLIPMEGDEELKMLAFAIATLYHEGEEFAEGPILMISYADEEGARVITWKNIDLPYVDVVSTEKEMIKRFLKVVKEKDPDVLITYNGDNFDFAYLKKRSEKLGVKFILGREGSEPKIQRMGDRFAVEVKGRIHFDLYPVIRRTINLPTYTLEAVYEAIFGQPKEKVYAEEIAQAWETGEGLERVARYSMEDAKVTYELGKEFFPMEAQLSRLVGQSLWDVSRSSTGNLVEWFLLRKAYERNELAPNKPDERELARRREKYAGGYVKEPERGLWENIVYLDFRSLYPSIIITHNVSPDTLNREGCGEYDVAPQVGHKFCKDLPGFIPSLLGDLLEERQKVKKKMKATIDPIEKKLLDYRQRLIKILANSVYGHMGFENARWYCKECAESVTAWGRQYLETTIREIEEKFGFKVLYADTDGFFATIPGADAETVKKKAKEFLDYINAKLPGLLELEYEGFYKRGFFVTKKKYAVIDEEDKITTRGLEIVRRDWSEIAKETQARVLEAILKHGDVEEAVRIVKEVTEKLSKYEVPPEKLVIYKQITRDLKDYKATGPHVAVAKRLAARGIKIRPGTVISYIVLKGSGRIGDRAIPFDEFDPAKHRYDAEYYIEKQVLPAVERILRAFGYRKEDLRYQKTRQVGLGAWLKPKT
In words: fluorescence polarization. Particulars: template fully HNA (1,5-anhydrohexitol nucleic acid); primer DNA; FP: 1x ThermoPol (20 mM Tris-HCl, 10 mM (NH4)2SO4, 10 mM KCl, 2 mM MgSO4, 0.1% Triton X-100, pH 8.8), 25 C, 20 min, 5 nM labeled primer.

The target of series [2] is T2, KOD-H4 DNA polymerase V93Q;I114T;D141A;E143A;S383K;K429G;F445L;A485L;Y493V;Y496H;Y497M;Y499F;A500E;R501N;I521L;E664K;K726R;N735K (Thermococcus kodakarensis KOD?) (UniProt D0VWU9).
T2 sequence: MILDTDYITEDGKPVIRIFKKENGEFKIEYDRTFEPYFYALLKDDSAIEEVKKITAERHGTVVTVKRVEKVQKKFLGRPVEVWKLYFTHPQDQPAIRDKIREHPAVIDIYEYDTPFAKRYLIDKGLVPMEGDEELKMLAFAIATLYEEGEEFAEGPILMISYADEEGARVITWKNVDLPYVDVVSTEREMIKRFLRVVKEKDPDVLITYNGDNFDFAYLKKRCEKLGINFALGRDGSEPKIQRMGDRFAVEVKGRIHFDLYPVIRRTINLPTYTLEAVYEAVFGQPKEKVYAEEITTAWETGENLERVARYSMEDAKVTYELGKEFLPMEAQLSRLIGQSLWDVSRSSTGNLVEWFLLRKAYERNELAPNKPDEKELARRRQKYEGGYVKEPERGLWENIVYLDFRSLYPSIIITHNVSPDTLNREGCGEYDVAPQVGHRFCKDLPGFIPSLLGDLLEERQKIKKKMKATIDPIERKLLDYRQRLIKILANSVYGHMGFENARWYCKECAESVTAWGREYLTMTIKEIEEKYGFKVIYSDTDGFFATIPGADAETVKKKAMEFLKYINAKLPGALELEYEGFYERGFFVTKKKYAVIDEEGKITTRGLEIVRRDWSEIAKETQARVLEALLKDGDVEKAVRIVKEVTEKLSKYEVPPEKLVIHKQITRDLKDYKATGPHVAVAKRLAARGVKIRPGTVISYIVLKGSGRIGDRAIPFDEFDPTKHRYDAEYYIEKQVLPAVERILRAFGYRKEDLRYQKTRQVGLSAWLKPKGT
In words: fluorescence polarization. As to conditions: template fully HNA (1,5-anhydrohexitol nucleic acid); primer DNA; FP: 1x ThermoPol (20 mM Tris-HCl, 10 mM (NH4)2SO4, 10 mM KCl, 2 mM MgSO4, 0.1% Triton X-100, pH 8.8), 25 C, 20 min, 5 nM labeled primer.

The target in series [3] is T3, KOD-H4 DNA polymerase (UniProt D0VWU9 1-774, V93Q;I114T;D141A;E143A;S383K;K429G;F445L;A485L;Y493V;Y496H;Y497M;Y499F;A500E;R50 …).
T3 sequence: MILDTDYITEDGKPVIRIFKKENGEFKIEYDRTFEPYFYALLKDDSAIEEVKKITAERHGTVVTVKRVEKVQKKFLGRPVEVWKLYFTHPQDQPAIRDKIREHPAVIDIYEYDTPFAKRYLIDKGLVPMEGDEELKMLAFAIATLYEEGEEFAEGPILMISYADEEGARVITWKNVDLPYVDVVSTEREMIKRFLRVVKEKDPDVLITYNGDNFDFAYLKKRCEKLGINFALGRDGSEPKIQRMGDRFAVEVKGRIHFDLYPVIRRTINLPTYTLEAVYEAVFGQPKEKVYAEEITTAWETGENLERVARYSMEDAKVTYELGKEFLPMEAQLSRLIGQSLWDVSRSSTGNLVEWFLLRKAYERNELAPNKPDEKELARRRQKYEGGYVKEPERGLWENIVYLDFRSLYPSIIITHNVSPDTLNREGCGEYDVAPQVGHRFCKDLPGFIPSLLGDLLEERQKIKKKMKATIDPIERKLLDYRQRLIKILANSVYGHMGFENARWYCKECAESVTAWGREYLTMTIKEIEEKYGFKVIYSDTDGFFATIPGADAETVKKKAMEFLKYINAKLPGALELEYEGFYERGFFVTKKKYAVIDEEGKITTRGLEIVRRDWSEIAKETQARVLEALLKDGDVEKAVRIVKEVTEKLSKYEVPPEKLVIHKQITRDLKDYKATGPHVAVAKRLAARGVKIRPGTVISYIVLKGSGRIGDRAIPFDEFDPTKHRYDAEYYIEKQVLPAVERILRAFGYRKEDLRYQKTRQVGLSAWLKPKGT
In words: X-ray crystallography; dGTP analogue dGMPNPP-type (alpha,beta-imido, NHdGTP); Mg2+ or Mg2+/Mn2+; FP: 1x ThermoPol (20 mM Tris-HCl, 10 mM (NH4)2SO4, 10 mM KCl, 2 mM MgSO4, 0.1% Triton X-100, pH 8.8), 25 C, 20 min, 5 nM labeled primer. As to conditions: protein: recombinant; 5' overhang 3 nt on template; 13-nt duplex.

Series [4] deals with T3, KOD-H4 DNA polymerase. In words: fluorescence polarization; 2 mM MgSO4; apparent KD, Hill slope 1.67; FP: 1x ThermoPol (20 mM Tris-HCl, 10 mM (NH4)2SO4, 10 mM KCl, 2 mM MgSO4, 0.1% Triton X-100, pH 8.8), 25 C, 20 min, 5 nM labeled primer. Particulars: protein: recombinant; label: 5'-6-FAM on primer; 5' overhang 6 nt on template; 10-nt duplex.
The target of series [5] is T4, Tgo-H4 (RT-H4) DNA polymerase (UniProt P56689 1-773, V93Q;I114T;D141A;E143A;S383K;E429G;F445L;A485L;F493V;Y496H;Y497M;Y499F;A500E;K50 …).
T4 sequence: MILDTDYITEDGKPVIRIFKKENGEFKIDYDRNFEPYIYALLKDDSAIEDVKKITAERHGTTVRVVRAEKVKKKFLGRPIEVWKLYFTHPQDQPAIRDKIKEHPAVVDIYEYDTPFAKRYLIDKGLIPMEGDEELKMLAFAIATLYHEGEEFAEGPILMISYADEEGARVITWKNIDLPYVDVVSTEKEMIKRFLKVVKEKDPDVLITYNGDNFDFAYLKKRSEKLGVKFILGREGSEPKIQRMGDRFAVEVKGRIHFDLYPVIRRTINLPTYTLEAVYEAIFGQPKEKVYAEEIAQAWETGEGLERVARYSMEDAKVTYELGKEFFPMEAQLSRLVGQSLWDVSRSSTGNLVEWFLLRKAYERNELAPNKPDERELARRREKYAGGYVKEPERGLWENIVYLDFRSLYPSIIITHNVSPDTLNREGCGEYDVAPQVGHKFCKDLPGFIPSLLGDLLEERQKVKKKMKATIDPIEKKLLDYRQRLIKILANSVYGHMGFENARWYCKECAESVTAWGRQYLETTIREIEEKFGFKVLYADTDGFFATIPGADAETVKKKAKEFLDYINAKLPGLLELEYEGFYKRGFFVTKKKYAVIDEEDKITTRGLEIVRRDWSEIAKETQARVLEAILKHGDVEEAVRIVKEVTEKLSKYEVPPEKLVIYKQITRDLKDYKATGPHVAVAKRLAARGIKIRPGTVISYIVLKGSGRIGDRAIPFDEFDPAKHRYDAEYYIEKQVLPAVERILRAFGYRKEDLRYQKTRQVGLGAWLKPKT
In words: fluorescence polarization; 2 mM MgSO4; apparent KD, Hill slope 1.66; FP: 1x ThermoPol (20 mM Tris-HCl, 10 mM (NH4)2SO4, 10 mM KCl, 2 mM MgSO4, 0.1% Triton X-100, pH 8.8), 25 C, 20 min, 5 nM labeled primer. As to conditions: protein: recombinant; label: 5'-6-FAM on primer; 5' overhang 6 nt on template; 10-nt duplex.

For the molecule “GACCACGGCC / AACTGTGGCCGTGGTC [DNA primer/HNA template (FP)]”, the Kd in series [1] is 61.5 nM; in series [2] it was 80.2 nM.

B1: 13mer DNA primer/DNA template (crystal) (dsDNA)
DNA 1: GACCACGGCCACA
DNA 2: AACTGTGGCCGTGGTC
For B1, the binding result in series [3] is “binds”.

B2: DNA primer/DNA template (FP) (dsDNA)
DNA 1: GACCACGGCC
DNA 2: AACTGTGGCCGTGGTC
Take B2: the Kd is 12.5 nM in series [4] and 10 nM in series [5].
